Assay [1] deals with T1, TmrAB (Thermus thermophilus, UniProt Q72J04+Q72J05, Q72J05:E523Q).
T1 construct: gene TT_C0976
The assay is described as follows: biochemical.

In assay [2] the target is TmrA^E523QB (Thermus thermophilus). The conditions noted are these: scale: translocated peptides per TmrA^EQB complex.
For assay [3], the target named is Thermus thermophilus multidrug resistance transport complex TmrAB, wildtype (Thermus thermophilus).
For assay [4], the target named is TmrA^E523QB (Thermus thermophilus).
For assay [5] the target is unchanged. This is another data set of the same source.
The target is the same in assay [6]. The assay is described as follows: radioligand binding; SPA time course at 20 °C; TmrA^EQB (0.2 µM) first converted to the OF state with Mg2+-ATP (5 min, 45 °C), excess ATP removed by rapid gel filtration, then R9LQK (10 µM, traced with 3H-R9L); mono-exponential fit; apparent. For orientation: Size exclusion chromatography separates by hydrodynamic size, large species first.

In assay [7] the target is Thermus thermophilus multidrug resistance transport complex TmrAB, wildtype (Thermus thermophilus). In words: radioligand binding; scintillation proximity assay (SPA), equilibrium; His-tagged TmrAB (0.2 µM) in lipid nanodiscs held on copper-chelated SPA beads; R9LQK traced with 3H-R9L; no nucleotide (IF conformation); 20 °C; background with 200 mM imidazole; one-site binding model. Background: SPA uses beads or plates that emit light when radiolabelled molecules are held near them.

Where no end group is shown, it is not given here. fluorescein = fluorescein (from 5-iodoacetamide fluorescein) label on the Cys side chain

In general, EC50 refers to the concentration needed to bring the measured effect to its halfway point. As a reminder, the Kd is the constant that tells how readily two partners part at equilibrium.

As to `Nc1ncnc2c1ncn2[C@@H]1O[C@H](COP(=O)(O)OP(=O)(O)OP(=O)(O)O)[C@@H](O)[C@H]1O` [ATP], in assay [1], the midpoint of the response, the EC50, lay at 30 µM.

Take RRYC(fluorescein)KSTEL (also: fluorescein attached via 5-iodoacetamide fluorescein) [C4F peptide (RRYC^fluoresceinKSTEL)]: the translocated C4F peptides per TmrA^EQB complex; single-turnover transport into proteoliposomes (50 µM C4F, 3 mM Mg2+-ATP, 5 min at 45 °C), fluorescence read-out in assay [2] was 0.5. In assay [3], this molecule came in with a transported C4F peptides with ATP against the background control with ADP; single-liposome flow cytometry (30 µM C4F, 3 mM Mg2+-ATP or Mg2+-ADP, 5 min at 45 °C) of 100 fold. Besides, in assay [4], the C4F peptides transported per liposome in the burst phase (0–5 min at 45 °C) of a time course; single-liposome flow cytometry (30 µM C4F, 3 mM Mg2+-ATP) (peptides per liposome) came out at 30. The C4F peptides translocated per correctly oriented TmrA^EQB upon each IF-to-OF transition; single-liposome flow cytometry (30 µM C4F, 3 mM Mg2+-ATP, two consecutive switches) (peptides per correctly oriented TmrA^EQB) in assay [5] was 1.3.

RRYQKSTEL [R9LQK peptide (…)]: in assay [6], the apparent association rate kon (recovery of peptide binding along the OF-to-IF return) was found to be 0.03 min⁻¹ and the half-life of the recovery of peptide binding is 24 min. For the same molecule, the Kd in assay [7] worked out at 70 µM.

The values are drawn from paper PMC7205462 (eLife, 2020).
